{
  "source": "paper PMC3233575",
  "key": {"[1]": {"target": "CHO-expressed soluble CD4 (UniProt P01730)"}, "[2]": {"target": "soluble recombinant DC-SIGN, entire extracellular domain (residues 70-404) (UniProt Q9NNX6)", "sequence (Q9NNX6 70-404)": "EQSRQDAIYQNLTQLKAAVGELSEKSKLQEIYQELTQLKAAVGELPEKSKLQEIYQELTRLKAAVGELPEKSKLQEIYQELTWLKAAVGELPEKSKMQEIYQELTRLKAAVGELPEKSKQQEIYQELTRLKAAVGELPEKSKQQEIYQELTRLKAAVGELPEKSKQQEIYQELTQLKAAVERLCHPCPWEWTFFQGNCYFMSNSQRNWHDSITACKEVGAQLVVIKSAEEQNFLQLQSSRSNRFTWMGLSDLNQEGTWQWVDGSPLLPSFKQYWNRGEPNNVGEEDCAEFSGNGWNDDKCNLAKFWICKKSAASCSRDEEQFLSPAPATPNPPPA", "experiment": "acoustic biosensor (RapID4); soluble DC-SIGN amine-coupled, BSA on the control cell; purified or unpurified inactivated virus 34-250 nM (by p24, 2500 gag per virion); Langmuir kinetic model"}, "[3]": {"target": "HIV-1 IIIB gp140 (soluble, trimeric ectodomain of the envelope glycoprotein, residues 31-665) (HIV-1 strain IIIB (clade B, X4), molecular clone pBH10) (UniProt P03375)", "experiment": "SPR; gp140 immobilised by direct amine coupling on CM5 (560 RU BX08, 620 RU IIIB); fluid phase DC-SIGN 50-600 nM or Langerin 25-200 nM; HBS-P pH 7.4 with 10 mM CaCl2; heterogeneous analyte model (KD2 oligomer, KD1 monomer)"}, "[4]": {"target": "HIV-1 BX08 gp140 (soluble, trimeric ectodomain of the envelope glycoprotein, residues 31-663) (HIV-1 strain 92FR_BX08 (clade B, R5))", "experiment": "SPR; gp140 immobilised by direct amine coupling on CM5 (560 RU BX08, 620 RU IIIB); fluid phase DC-SIGN 50-600 nM or Langerin 25-200 nM; HBS-P pH 7.4 with 10 mM CaCl2; heterogeneous analyte model (KD2 oligomer, KD1 monomer)"}, "[5]": {"target": "HIV-1 IIIB virus particles (envelope glycoprotein on virions) (HIV-1 strain IIIB (clade B)) (UniProt P03375)"}, "[6]": {"target": "HIV-1 BX08 gp140 (soluble, trimeric ectodomain of the envelope glycoprotein, residues 31-663) (HIV-1 strain 92FR_BX08 (clade B, R5))"}},
  "data": [
    {"substance": "HIV-1 BX08 gp140 (soluble, trimeric ectodomain of the envelope glycoprotein, residues 31-663) (domain or fragment)", "values": [
      {"measurement": "maximum enhancement of p24 release from PM1 cells infected with HIV-1 BX08 pre-incubated with soluble DC-SIGN at <1 nM, against no treatment", "setting": "[1]", "result": 3.6, "unit": "fold"}
    ]},
    {"substance": "HIV-1 IIIB virus particles (envelope glycoprotein on virions) (from UniProt P03375 33-511; P03375 512-856) (complex)", "values": [
      {"measurement": "Kd", "setting": "[2]", "result": 96, "unit": "nM"},
      {"measurement": "maximum enhancement of p24 release from PM1 cells infected with HIV-1 IIIB pre-incubated with soluble DC-SIGN at <1 nM, against no treatment", "setting": "[1]", "result": 15.3, "unit": "fold"}
    ]},
    {"substance": "HIV-1 IIIBx virus particles (envelope glycoprotein on virions), CD4-independent variant of IIIB (from UniProt P03375 33-511; P03375 512-856) (complex)", "values": [
      {"measurement": "Kd", "setting": "[2]", "result": 20, "unit": "nM"}
    ]},
    {"substance": "soluble recombinant DC-SIGN, entire extracellular domain (residues 70-404) (from UniProt Q9NNX6-1 70-404) (domain or fragment)", "values": [
      {"measurement": "KD2 (tetrameric form, heterogeneous analyte model)", "setting": "[3]", "result": 0.063, "unit": "µM"},
      {"measurement": "KD2 (tetrameric form, heterogeneous analyte model)", "setting": "[4]", "result": 0.062, "unit": "µM"},
      {"measurement": "IC50 of soluble DC-SIGN for inhibition of HIV-1 IIIB replication in PM1 cells (p24 release, 10 days); pair said to be blocked: envelope protein with CD4", "setting": "[5]", "result": 4, "unit": "nM"},
      {"measurement": "IC50 of soluble DC-SIGN for inhibition of HIV-1 BX08 replication in PM1 cells (p24 release, 10 days); pair said to be blocked: envelope protein with CD4", "setting": "[6]", "result": 2.5, "unit": "nM"}
    ]},
    {"substance": "soluble recombinant Langerin, full extracellular domain (residues 56-328) (from UniProt Q9UJ71 56-328) (domain or fragment)", "values": [
      {"measurement": "KD2 (trimeric form, heterogeneous analyte model)", "setting": "[3]", "result": 0.011, "unit": "µM"},
      {"measurement": "KD2 (trimeric form, heterogeneous analyte model)", "setting": "[4]", "result": 0.024, "unit": "µM"}
    ]}
  ]
}
